# In patent publication US20140161821A1, “TREATMENT WITH ANTI-PCSK9 ANTIBODIES” (PFIZER INC., priority 2011, published 2014):
# B1: L1L3: humanized (<5% murine residues) monoclonal PCSK9 antagonist antibody that binds to secreted PCSK9; VH SEQ ID NO: 11, VL SEQ ID NO: 12 (antibody, V domains shown)
# VH: QVQLVQSGAEVKKPGASVKVSCKASGYTFTSYYMHWVRQAPGQGLEWMGEISPFGGRTNYNEKFKSRVTMTRDTSTSTVYMELSSLRSEDTAVYYCARERPLYASDLWGQGTTVTVSS
# VL: DIQMTQSPSSLSASVGDRVTITCRASQGISSALAWYQQKPGKAPKLLIYSASYRYTGVPSRFSGSGSGTDFTFTISSLQPEDIATYYCQQRYSLWRTFGQGTKLEIK
# modifications: heavy chain variable region; light chain variable region
# Test: Example 2 clinical study, single escalating IV doses: pharmacokinetics (NCA)
# Format: in vivo, human
# Procedure: The subjects, investigator, and site personnel (except site personnel responsible for drug preparation) were blinded to treatment assignments, as was the CRO designee; while the Sponsor clinical research team was unblinded. The study was conducted in 6 planned cohorts of 8 subjects per cohort in an effort to seek a maximum tolerated dose or MTD (total of approximately 48 subjects). […] Doses were administered following an overnight fast as an intravenous infusion over 60 minutes. […] Infusions will be administered as a single infusion over 60 minutes. […]
# Drug was prepared by qualified unblinded site personnel and dispensed in a blinded fashion to the patient and immediate study staff.
# In addition, single PK samples were obtained on Days 4, 7, 14, 21, 28 and additional PK follow-up visit (if applicable). One sample was drawn at each time point.
molecule,measurement,setting,value
B1,AUC(0-∞),"single IV 0.3 mg/kg, mean",34997.88 ng·days/mL
same,Cl,"single IV 0.3 mg/kg, mean",8.70 mL/day/kg
same,Cmax,"single IV 0.3 mg/kg, mean",10.31967 µg/mL
same,Half-life,"single IV 0.3 mg/kg, mean",65.8 h
same,Vss,"single IV 0.3 mg/kg, mean",0.03177 L/kg
same,AUC(0-∞),"single IV 0.3 mg/kg, median",33748.15 ng·days/mL
same,Cl,"single IV 0.3 mg/kg, median",8.92 mL/day/kg
same,Cmax,"single IV 0.3 mg/kg, median",10.5375 µg/mL
same,Half-life,"single IV 0.3 mg/kg, median",65 h
same,Vss,"single IV 0.3 mg/kg, median",0.03074 L/kg
same,AUC(0-∞),"single IV 1 mg/kg, mean",156399.94 ng·days/mL
same,Cl,"single IV 1 mg/kg, mean",6.58 mL/day/kg
same,Cmax,"single IV 1 mg/kg, mean",29.25183 µg/mL
same,Half-life,"single IV 1 mg/kg, mean",115 h
same,Vss,"single IV 1 mg/kg, mean",0.04159 L/kg
same,AUC(0-∞),"single IV 1 mg/kg, median",166736.58 ng·days/mL
same,Cl,"single IV 1 mg/kg, median",6.00 mL/day/kg
same,Cmax,"single IV 1 mg/kg, median",28.2315 µg/mL
same,Half-life,"single IV 1 mg/kg, median",114 h
same,Vss,"single IV 1 mg/kg, median",0.04234 L/kg
same,AUC(0-∞),"single IV 3 mg/kg, mean",709485.10 ng·days/mL
same,Cl,"single IV 3 mg/kg, mean",4.54 mL/day/kg
same,Cmax,"single IV 3 mg/kg, mean",96.7115 µg/mL
same,Half-life,"single IV 3 mg/kg, mean",210 h
same,Vss,"single IV 3 mg/kg, mean",0.04906 L/kg
same,AUC(0-∞),"single IV 3 mg/kg, median",728278.54 ng·days/mL
same,Cl,"single IV 3 mg/kg, median",4.12 mL/day/kg
same,Cmax,"single IV 3 mg/kg, median",100.6205 µg/mL
same,Half-life,"single IV 3 mg/kg, median",194 h
same,Vss,"single IV 3 mg/kg, median",0.04894 L/kg
same,AUC(0-∞),"single IV 6 mg/kg, mean",1446945.71 ng·days/mL
same,Cl,"single IV 6 mg/kg, mean",4.33 mL/day/kg
same,Cmax,"single IV 6 mg/kg, mean",175.85433 µg/mL
same,Half-life,"single IV 6 mg/kg, mean",201 h
same,Vss,"single IV 6 mg/kg, mean",0.06045 L/kg
same,AUC(0-∞),"single IV 6 mg/kg, median",1289916.44 ng·days/mL
same,Cl,"single IV 6 mg/kg, median",4.65 mL/day/kg
same,Cmax,"single IV 6 mg/kg, median",177.485 µg/mL
same,Half-life,"single IV 6 mg/kg, median",186 h
same,Vss,"single IV 6 mg/kg, median",0.06133 L/kg
same,AUC(0-∞),"single IV 12 mg/kg, mean",3768691.17 ng·days/mL
same,Cl,"single IV 12 mg/kg, mean",3.28 mL/day/kg
same,Cmax,"single IV 12 mg/kg, mean",353.96017 µg/mL
same,Half-life,"single IV 12 mg/kg, mean",492.7 h
same,Vss,"single IV 12 mg/kg, mean",0.07225 L/kg
same,AUC(0-∞),"single IV 12 mg/kg, median",3599992.39 ng·days/mL
same,Cl,"single IV 12 mg/kg, median",3.36 mL/day/kg
same,Cmax,"single IV 12 mg/kg, median",357.671 µg/mL
same,Half-life,"single IV 12 mg/kg, median",293.8 h
same,Vss,"single IV 12 mg/kg, median",0.05752 L/kg
same,AUC(0-∞),"single IV 18 mg/kg, mean",4812012.99 ng·days/mL
same,Cl,"single IV 18 mg/kg, mean",3.85 mL/day/kg
same,Cmax,"single IV 18 mg/kg, mean",532.44917 µg/mL
same,Half-life,"single IV 18 mg/kg, mean",311.3 h
same,Vss,"single IV 18 mg/kg, mean",0.06546 L/kg
same,AUC(0-∞),"single IV 18 mg/kg, median",4857618.28 ng·days/mL
same,Cl,"single IV 18 mg/kg, median",3.71 mL/day/kg
same,Cmax,"single IV 18 mg/kg, median",560.4635 µg/mL
same,Half-life,"single IV 18 mg/kg, median",282.2 h
same,Vss,"single IV 18 mg/kg, median",0.06083 L/kg
